Reference: the supplement of paper PMC11246515
± gives the standard deviation of the averaged measurements.

Experiment: total protein half-life in vivo (active degradation + dilution); higher = more stable protein
[1] = E. coli NCM3722 delta-clpP delta-lon delta-hslV, growth: N-lim chemostat, doubling time 6 h
[2] = E. coli NCM3722 delta-clpP, growth: N-lim chemostat, doubling time 6 h
[3] = E. coli NCM3722 delta-hslV, growth: N-lim chemostat, doubling time 6 h
[4] = E. coli NCM3722 delta-lon, growth: N-lim chemostat, doubling time 6 h
[5] = E. coli NCM3722 delta-smpB, growth: N-lim chemostat, doubling time 6 h
[6] = wild type E. coli NCM3722, growth: C-lim chemostat, doubling time 3 h
[7] = wild type E. coli NCM3722, growth: C-lim chemostat, doubling time 6 h
[8] = wild type E. coli NCM3722, growth: C-lim chemostat, doubling time 12 h
[9] = wild type E. coli NCM3722, growth: N-lim chemostat, doubling time 6 h
[10] = wild type E. coli NCM3722, growth: N-lim chemostat, doubling time 12 h
[11] = wild type E. coli NCM3722, growth: P-lim chemostat, doubling time 6 h
[12] = wild type E. coli NCM3722, growth: P-lim chemostat, doubling time 12 h

Sequence	total protein half-life in vivo [1] [h]	total protein half-life in vivo [2] [h]	total protein half-life in vivo [3] [h]	total protein half-life in vivo [4] [h]	total protein half-life in vivo [5] [h]	total protein half-life in vivo [6] [h]	total protein half-life in vivo [7] [h]	total protein half-life in vivo [8] [h]	total protein half-life in vivo [9] [h]	total protein half-life in vivo [10] [h]	total protein half-life in vivo [11] [h]	total protein half-life in vivo [12] [h]
MKQIRLLAQYYVDLMMKLGLVRFSMLLALALVVLAIVVQMAVTMVLHGQVESIDVIRSIFFGLLITPWAVYFLSVVVEQLEESRQRLSRLVQKLEEMRERDLSLNVQLKDNIAQLNQEIAVREKAEAELQETFGQLKIEIKEREETQIQLEQQSSFLRSFLDASPDLVFYRNEDKEFSGCNRAMELLTGKSEKQLVHLKPADVYSPEAAAKVIETDEKVFRHNVSLTYEQWLDYPDGRKACFEIRKVPYYDRVGKRHGLMGFGRDITERKRYQDALERASRDKTTFISTISHELRTPLNGIVGLSRILLDTELTAEQEKYLKTIHVSAVTLGNIFNDIIDMDKMERRKVQLDNQPVDFTSFLADLENLSALQAQQKGLRFNLEPTLPLPHQVITDGTRLRQILWNLISNAVKFTQQGQVTVRVRYDEGDMLHFEVEDSGIGIPQDELDKIFAMYYQVKDSHGGKPATGTGIGLAVSRRLAKNMGGDITVTSEQGKGSTFTLTIHAPSVAEEVDDAFDEDDMPLPALNVLLVEDIELNVIVARSVLEKLGNSVDVAMTGKAALEMFKPGEYDLVLLDIQLPDMTGLDISRELTKRYPREDLPPLVALTANVLKDKQEYLNAGMDDVLSKPLSVPALTAMIKKFWDTQDDEESTVTTEENSKSEALLDIPMLEQYLELVGPKLITDGLAVFEKMMPGYVSVLESNLTAQDKKGIVEEGHKIKGAAGSVGLRHLQQLGQQIQSPDLPAWEDNVGEWIEEMKEEWRHDVEVLKAWVAKATKK [P0AEC3]	5.863 ± 0.04	6.27 ± 0.077	5.797 ± 0.042	5.21 ± 0.38	5.568 ± 0.012	3.09 ± 0.14	5.88 ± 0.086	10.9 ± 0.17	5.54 ± 0.18	10.5 ± 1	5.69 ± 0.2	11.4 ± 0.22
MKQLWFAMSLVTGSLLFSANASATPASGALLQQMNLASQSLNYELSFISINKQGVESLRYRHARLDNRPLAQLLQMDGPRREVVQRGNEISYFEPGLEPFTLNGDYIVDSLPSLIYTDFKRLSPYYDFISVGRTRIADRLCEVIRVVARDGTRYSYIVWMDTESKLPMRVDLLDRDGETLEQFRVIAFNVNQDISSSMQTLAKANLPPLLSVPVGEKAKFSWTPTWLPQGFSEVSSSRRPLPTMDNMPIESRLYSDGLFSFSVNVNRATPSSTDQMLRTGRRTVSTSVRDNAEITIVGELPPQTAKRIAENIKFGAAQ [P0AFX9]	–	6.16 ± 0.25	6.13 ± 0.069	5.896 ± 0.045	5.8 ± 0.49	2.96 ± 0.22	6.16 ± 0.61	10.4 ± 0.19	6.73 ± 0.14	13.2 ± 1.5	5.88 ± 0.69	12 ± 0.74
MKQPAPVYQRIAGHQWRHIWLSGDIHGCLEQLRRKLWHCRFDPWRDLLISVGDVIDRGPQSLRCLQLLEQHWVCAVRGNHEQMAMDALASQQMSLWLMNGGDWFIALADNQQKQAKTALEKCQHLPFILEVHSRTGKHVIAHADYPDDVYEWQKDVDLHQVLWSRSRLGERQKGQGITGADHFWFGHTPLRHRVDIGNLHYIDTGAVFGGELTLVQLQ	–	–	–	–	–	–	–	–	–	–	–	5.48
MKQPGEELQETLTELDDRAVVDYLIKNPEFFIRNARAVEAIRVPHPVRGTVSLVEWHMARARNHIHVLEENMALLMEQAIANEGLFYRLLYLQRSLTAASSLDDMLMRFHRWARDLGLAGASLRLFPDRWRLGAPSNHTHLALSRQSFEPLRIQRLGQEQHYLGPLNGPELLVVLPEAKAVGSVAMSMLGSDADLGVVLFTSRDASHYQQGQGTQLLHEIALMLPELLERWIERV	5.46 ± 0.28	–	1.73 ± 0.75	1.21 ± 0.07	0.944 ± 0.016	1.4 ± 0.051	2.35 ± 0.43	2.74 ± 0.45	1.33	1.56	2.18 ± 0.26	3.12 ± 1
MKQSHFFAHLSRLKLINRWPLMRNVRTENVSEHSLQVAMVAHALAAIKNRKFGGNVNAERIALLAMYHDASEVLTGDLPTPVKYFNSQIAQEYKAIEKIAQQKLVDMVPEELRDIFAPLIDEHAYSDEEKSLVKQADALCAYLKCLEELAAGNNEFLLAKTRLEATLEARRSQEMDYFMEIFVPSFHLSLDEISQDSPL	4.544 ± 0.041	4.34 ± 0.065	4.17 ± 0.19	5.57 ± 1.7	4.07 ± 0.4	2.94 ± 0.21	5.64 ± 0.19	–	4.16 ± 0.45	7.12 ± 0.38	4.86 ± 0.56	9.76 ± 0.83
MKQTQRHNGIIELVKQQGYVSTEELVEHFSVSPQTIRRDLNELAEQNLILRHHGGAALPSSSVNTPWHDRKATQTEEKERIARKVAEQIPNGSTLFIDIGTTPEAVAHALLNHSNLRIVTNNLNVANTLMVKEDFRIILAGGELRSRDGGIIGEATLDFISQFRLDFGILGISGIDSDGSLLEFDYHEVRTKRAIIENSRHVMLVVDHSKFGRNAMVNMGSISMVDAVYTDAPPPVSVMQVLTDHHIQLELC [P0ACL0]	6.303 ± 0.03	5.91 ± 0.36	5.156 ± 0.034	5.78 ± 0.11	5.52 ± 0.89	2.84 ± 0.11	5.9 ± 0.41	10.73 ± 0.031	5.84 ± 0.25	10.323 ± 0.00092	5.28 ± 0.33	11.3 ± 0.63
MKQTVAAYIAKTLESAGVKRIWGVTGDSLNGLSDSLNRMGTIEWMSTRHEEVAAFAAGAEAQLSGELAVCAGSCGPGNLHLINGLFDCHRNHVPVLAIAAHIPSSEIGSGYFQETHPQELFRECSHYCELVSSPEQIPQVLAIAMRKAVLNRGVSVVVLPGDVALKPAPEGATMHWYHAPQPVVTPEEEELRKLAQLLRYSSNIALMCGSGCAGAHKELVEFAGKIKAPIVHALRGKEHVEYDNPYDVGMTGLIGFSSGFHTMMNADTLVLLGTQFPYRAFYPTDAKIIQIDINPASIGAHSKVDMALVGDIKSTLRALLPLVEEKADRKFLDKALEDYRDARKGLDDLAKPSEKAIHPQYLAQQISHFAADDAIFTCDVGTPTVWAARYLKMNGKRRLLGSFNHGSMANAMPQALGAQATEPERQVVAMCGDGGFSMLMGDFLSVVQMKLPVKIVVFNNSVLGFVAMEMKAGGYLTDGTELHDTNFARIAEACGITGIRVEKASEVDEALQRAFSIDGPVLVDVVVAKEELAIPPQIKLEQAKGFSLYMLRAIISGRGDEVIELAKTNWLR	5.5 ± 0.51	5.2 ± 0.97	4.77 ± 0.08	5.321 ± 0.051	4.71 ± 0.4	3.19 ± 0.15	5.59 ± 0.21	11.2 ± 2.6	4.7 ± 0.064	7.734 ± 0.064	5.614 ± 0.02	11.6 ± 0.17
MKQTVYIASPESQQIHVWNLNHEGALTLTQVVDVPGQVQPMVVSPDKRYLYVGVRPEFRVLAYRIAPDDGALTFAAESALPGSPTHISTDHQGQFVFVGSYNAGNVSVTRLEDGLPVGVVDVVEGLDGCHSANISPDNRTLWVPALKQDRICLFTVSDDGHLVAQDPAEVTTVEGAGPRHMVFHPNEQYAYCVNELNSSVDVWELKDPHGNIECVQTLDMMPENFSDTRWAADIHITPDGRHLYACDRTASLITVFSVSEDGSVLSKEGFQPTETQPRGFNVDHSGKYLIAAGQKSHHISVYEIVGEQGLLHEKGRYAVGQGPMWVVVNAH	–	4.59 ± 0.99	4.79 ± 0.47	6.52 ± 0.2	4.87 ± 0.15	3.17 ± 0.23	–	11.1 ± 2	4.95 ± 0.27	9.37 ± 2.2	6.2 ± 2.5	–
MKRASLLTLTLIGAFSAIQAAWAVDYPLPPTGSRLVGQNQTYTVQEGDKNLQAIARRFDTAAMLILEANNTIAPVPKPGTTITIPSQLLLPDAPRQGIIVNLAELRLYYYPPGENIVQVYPIGIGLQGLETPVMETRVGQKIPNPTWTPTAGIRQRSLERGIKLPPVVPAGPNNPLGRYALRLAHGNGEYLIHGTSAPDSVGLRVSSGCIRMNAPDIKALFSSVRTGTPVKVINEPVKYSVEPNGMRYVEVHRPLSAEEQQNVQTMPYTLPAGFTQFKDNKAVDQKLVDKALYRRAGYPVSVSSGATPAASNAPSVESAQNGEPEQGNMLRVTQ	5.45 ± 0.37	5.31 ± 0.28	5.75 ± 0.64	5.59 ± 0.22	5.31 ± 0.5	3.12 ± 0.47	6.04 ± 1.4	12.4 ± 2.9	5.2 ± 0.094	9.08 ± 0.15	5.28 ± 0.24	11.2 ± 1.1
MKRAVITGLGIVSSIGNNQQEVLASLREGRSGITFSQELKDSGMRSHVWGNVKLDTTGLIDRKVVRFMSDASIYAFLSMEQAIADAGLSPEAYQNNPRVGLIAGSGGGSPRFQVFGADAMRGPRGLKAVGPYVVTKAMASGVSACLATPFKIHGVNYSISSACATSAHCIGNAVEQIQLGKQDIVFAGGGEELCWEMACEFDAMGALSTKYNDTPEKASRTYDAHRDGFVIAGGGGMVVVEELEHALARGAHIYAEIVGYGATSDGADMVAPSGEGAVRCMKMAMHGVDTPIDYLNSHGTSTPVGDVKELAAIREVFGDKSPAISATKAMTGHSLGAAGVQEAIYSLLMLEHGFIAPSINIEELDEQAAGLNIVTETTDRELTTVMSNSFGFGGTNATLVMRKLKD [P0A953]	5.27 ± 0.45	5.06 ± 0.069	4.81 ± 0.16	4.98 ± 0.26	4.81 ± 0.049	2.99 ± 0.039	6.06 ± 0.36	10.8 ± 0.81	4.78 ± 0.11	8.39 ± 0.45	5.89 ± 0.25	12.3 ± 0.21
MKRKLFWICAVAMGMSAFPSFMTQATPATQPLINAEPAVAAQTEQNPQVGQVMPGVQGADAPVVAQNGPSRDVKLTFAQIAPPPGSMVLRGINPNGSIEFGMRSDEVVTKAMLNLEYTPSPSLLPVQSQLKVYLNDELMGVLPVTKEQLGKKTLAQMPINPLFISDFNRVRLEFVGHYQDVCEKPASTTLWLDVGRSSGLDLTYQTLNVKNDLSHFPVPFFDPSDNRTNTLPMVFAGAPDVGLQQASAIVASWFGSRSGWRGQNFPVLYNQLPDRNAIVFATNDKRPDFLRDHPAVKAPVIEMINHPQNPYVKLLVVFGRDDKDLLQAAKGIAQGNILFRGESVVVNEVKPLLPRKPYDAPNWVRTDRPVTFGELKTYEEQLQSSGLEPAAINVSLNLPPDLYLMRSTGIDMDINYRYTMPPVKDSSRMDISLNNQFLQSFNLSSKQEANRLLLRIPVLQGLLDGKTDVSIPALKLGATNQLRFDFEYMNPMPGGSVDNCITFQPVQNHVVIGDDSTIDFSKYYHFIPMPDLRAFANAGFPFSRMADLSQTITVMPKAPNEAQMETLLNTVGFIGAQTGFPAINLTVTDDGSTIQGKDADIMIIGGIPDKLKDDKQIDLLVQATESWVKTPMRQTPFPGIVPDESDRAAETRSTLTSSGAMAAVIGFQSPYNDQRSVIALLADSPRGYEMLNDAVNDSGKRATMFGSVAVIRESGINSLRVGDVYYVGHLPWFERVWYALANHPILLAVLAAISVILLAWVLWRLLRIISRRRLNPDNE	6.42 ± 0.47	7.04 ± 0.67	6.15 ± 0.65	6.28 ± 0.15	5.904 ± 0.057	3.17 ± 0.033	6.1 ± 0.11	10.7 ± 1.2	5.8 ± 0.2	11.4 ± 0.44	6.3 ± 0.39	11.8 ± 0.31
MKRKTLPLLALVATTLFLIACDDRSDDLKAISKFKDLTPPRFSDVVSHQDDVSEEWSQVDYLSGPTLQVLRTRQSPDGCEDGSYYYLVDMQEKTVQPLMNALCIADNIKLEYQEVTDPYTKEKYFEYAHDGKLMGQLLIPSNPDNQE	–	–	–	–	–	–	1.71	–	–	–	–	–
MKRKVLLIPLIIFLAIAAALLWQLARNAEGDDPTNLESALIGKPVPKFRLESLDNPGQFYQADVLTQGKPVLLNVWATWCPTCRAEHQYLNQLSAQGIRVVGMNYKDDRQKAISWLKELGNPYALSLFDGDGMLGLDLGVYGAPETFLIDGNGIIRYRHAGDLNPRVWEEEIKPLWEKYSKEAAQ [P0AA86]	6.39 ± 0.1	–	–	–	6.09 ± 0.34	3 ± 0.084	6.112 ± 0.034	13.3 ± 1.2	6.16 ± 0.32	–	5.3	12.5 ± 1.7
MKRLHKRFLLATFCALFTATLQAADVTITVNGRVVAKPCTIQTKEANVNLGDLYTRNLQQPGSASGWHNITLSLTDCPVETSAVTAIVTGSTDNTGYYKNEGTAENIQIELRDDQDAALKNGDSKTVIVDEITRNAQFPLKARAITVNGNASQGTIEALINVIYTWQ	–	–	–	–	5.55	–	–	–	–	–	–	–
